In the series the test system is CC(=O)N[C@H]1[C@H](Oc2ccc([N+](=O)[O-])cc2)O[C@H](CO)[C@@H](O[C@@H]2O[C@H](CO)[C@@H](O)[C@H](O)[C@H]2NC(C)=O)[C@@H]1O. The series can be described thus: purified protein. To be noted: 0.1 M citric acid-potassium phosphate pH 5.5, 37 °C. Type of series: biochemical, Clostridium paraputrificum.

In general, Km refers to the substrate concentration at which the rate is half of its maximum. The term kcat denotes the maximal rate divided by the concentration of active sites. Take “crChit62J4 (crude/isolated Chit62J4) (Clostridium paraputrificum)”: where the note is “native enzyme”, the Km was determined as 570 µM and the kcat amounted to 13.5 s⁻¹.
Regarding rChit62J4 (Clostridium paraputrificum), where the note is “no added compound”, the Km came out at 240 ± 20 µM and the kcat turned out to be 31.5 ± 0.9 s⁻¹.
Consider “rChit62J4cat (Clostridium paraputrificum)”, for which, where the note is “no added compound”, the Km worked out at 190 ± 20 µM and the kcat was found to be 31.4 ± 0.8 s⁻¹.

The record behind these values is PMC8512545, “Chitinase Chit62J4 Essential for Chitin Processing by Human Microbiome Bacterium Clostridium paraputrificum J4” (Molecules, 2021).
